Reference: the DeepSol protein solubility set

Assay: soluble on expression in E. coli; label from the status in PepcDB or PDB records

Row | Sequence | soluble on expression in E. coli
1 | MCTQDEECSAPGGDKGKEKEEHTVVPRGKEEKEKKPGTKPSPISPAFKGTPKERPNCGKTKNETSGKKLRSNDVSPDVKDRLQLSEHGPSKTCIKDFQWLEDFITKMPCFHGFIGREDLMSVLKNVGDFLIRTSVQPNKHEVEKMKKNQADVKVLGNLSREKCAKKEKEKEEKLAGMGDVGRREFVISVYCKDKEKPATDKPQYTPIRNLVIKRDNGMVHVEPLRKFKTLTEFFGYYQKNSGICKETDFQLITPIPLSNWEFIHEDIALQQKKLGEGAFGEVRIGKMKLKSTKKTVEVAVKMLRNAEVVIREQVGELLHEARVMRMMDHKNVLRSYGIAVLKEPLYLMTEMCACGALREYLRENQETVTLAEKLFFVVGSSRGVQYLHSQKTIHRDLAVRNILLSEDRTPKISDFGLAKISERYEMKEQCKIPVRYLAPETLESFIFTTKTDVFSFGCVIWEIYENGNQPHDGKNAQTIRNLTKKNQFLKLTNSAPSELRKLIEERVFTSDPENRCSMTTIVQCAEKIEKPPVGMK | not soluble
2 | MCTRVVYSGSNGMVATGRSMDWKTDMHSNLWVFPRGMKRNGETGENSLEWTSRYGSVVTSAFEIASTDGMNEKGLVANLLWLPETEYPVRDKNKPGLAITAWVQYMLDNFATVEEAVAYIDEDTFQVVSDMMPDGSRLATLHLSISDATGDCAIFEYIGGKLTVYHSKEYKVMTNSPTYNKQLALSEYWKSIGGLSFLPGTNRAADRFARASFYINALPETDDERIAVASVFSVVRNASVPYGISTPESPEISTTQWRTVSESKNLRYFFESSLTPNTFWVNLKDFDLSEGAPVFKLSIANGEMYHGNTAKNFKTALPFKFMGVKG | not soluble
3 | MDANEFHWLMDMLESVEVGLVVLDLDFHVQAWNGFMEHHSGITARQIRDKVLFEVFPDIPEAWLTRKVDAVAMLNTRAFTSWEQRPYLFKFRNTRPITGTEEYMFQNLTISPITAPNGEVEKVCLLVYDVTEFASSKRALERANEQLAKLSMTDRLTGLLNRGTWENLVDAEYERFRRYGQATSLVMFDIDHFKPVNDTYGHLAGDEVIRHTADVTRNNIRQSDSAGRYGGEEFGIILPETDAESARVICERIREAIEKSTVSTSAGDIQYTVSMGIAQLTETPENYMQWMQKADEALYKAKESGRNKVVVSLEHHHHHH | soluble
4 | MDAVDATMEKLRAQCLSRGASGIQGLARFFRQLDRDGSRSLDADEFRQGLAKLGLVLDQAEAEGVCRKWDRNGSGTLDLEEFLRALRPPMSQAREAVIAAAFAKLDRSGDGVVTVDDLRGVYSGRAHPKVRSGEWTEDEVLRRFLDNFDSSEKDGQVTLAEFQDYYSGVSASMNTDEEFVAMMTSAWQL | not soluble
5 | MDCKELARIFYALSEPKRLCMVKLLLEREELCVCDFMRIFKESQPKISFHLKVLREAGLVTSQKRGKWNYYRLNKEAPVIPCVEKLLKDVKLEEKIQLEVKR | soluble
6 | MDDATEQEVFNRMQMTQFEEKRFELVVIRAEDTVVVEPLRQRETCPKCHQILSSELSRLWHQFVHMDAYNGFLDGKFQIQLPDFEFVIPCPFSTCSLLFLDLIDARFHYLLEHQSCQLFCCGVRFSDYKTALEHLQGTGSVETEAWDQQKHFLKPVYICNCCNRTWSSRNEYVAHLHGRDHMCPDPVCKYIFETNEKCIRHFFEQHYKHLFLDSRHLLLNYKYFLRYQEKQEERAYGLYVCTTCQRRFRDNKGFQSHVASQNCEFFDRKFFVQVIACKCGHQFKYCYYQRDVLLRNLPVLREAMEHVEREAPFNNMPEDVCNIYRSIIVVIIDVNQRLINEKFTNYQRTSPLKHSSFTPRQMAKLLLEVVDYFWKIM | not soluble
7 | MDDEEKDMADSFQNEVPAARVNIKLDLHTGNAKKKVELPLKLLAVGDYSNGKEQRPLSERDKVDINKNNFNSVMAEFSPAVNLTVEDTLNGNGNEQNIALEFKSLKDFEPEQVAKNIPQLRVLLAMRNLLRDLKSNLLDNATFRRELENILKDPTLSSELRDELAKIAPQENV | soluble
8 | MDEEKDLAQRKKEAAERAKQLARERLAARQADEQARSAAETGSLKTPPNSNGSQTETTKGEATEPASANDLALAKKRAAEEARAKAAQLRRQGEAAASGAATGDDLEAAKRKAAEEARAKAAQLRRQREAAAPGAATGDDLEAAKRKAAEEARARAAELRRQREAAESGAEDDLELAKKKAVAAAKARAAALAKQKAAEASGDDDELAKQKAAAAAKAKAAAAAKARAAALAKQQGGAGDEGAKQKAAAAARAKAEETDGGTGRSAAPSPNDPLLEKYVRIIHEHLGSDVLEDAYINRLAKDVPTLVVKKEAYYKVAELLKGHEQLRFDYLSELHGTDFQTHMEVYVHLYSYPNRHPVALKVKIERDNPEVDSLVPLWPGANWPECEAYDLLGIRFRGHPNLIRIFLGEQWVGHPLRKDYEPYDAEV | not soluble
9 | MDESIDDVQETRTIAIPLKDSHEDEVIEINCSELPDGEEVLQILEAEEAKLSYWIEVALEYYRQDRVDLFMMILESAGSRAGLEYEGVKQDQMRALDILAAYWMTQGYREKAKDKKSDFFSKATVLFNTADKIAMYEWSHLTVRAWFYLFERDKSTNKYELADQQFNYVVKTNPKNVLPLIGKAVIAFNKKDYKTAIYYFRKAIRQCRHTIADLRVGIGHCFAKMGMMDKAKTAFERAMEIEPYNVSAMCGLGIILLNTYDHDSLKHAVSLFGRSYNLQTDHPVALIHLANHFFFKKEIERAWTLAWHAATYNDCDSIKAEAFYQMGRCRHAQGQFDGAYKYYYQARQANNGEHTLAHYGLGQMYIHRNEIEEAIKCFDTVHKRLPNNTDTMKILGSLYAHVQLNDPAQTAEARQKGRDVLGKYLAVENDDYEACIDLAQLLEATDPKRSLELYENAIDLLVTNESIQPQPEMLNNVGALYMSMKQYEKAEHHFKRAKERLEEQLNTDEGSLLLERRSAPEKSHLLTIRYNLALCLEHLCRTVEAEQMYKDIVKECPGYIDGYLRLGCITRDRHQVYESSLWLKQGVQFDQASPIVWTLIGNLHFAKNEWMPAQKKFEFILSKIFNNKIPDPYSLVALGNVWFEQLLNPSRKKEDEKKYIDRALQMYQKALKLQPKNMYAANGIGCVLAYKRNWNDARDVFSQVRESTSEFYDVWLNIAHVCMEREQWMAAVQMYSSAMKKFRKENDSTLQHYLAKAYYRANMLNEAKEALECAMLDQLDNTQLKFNYAIVLKKSAKEVLRGHKMTSEQVTAAIDDLKFADKIFQYISKNDDRQSSHTGMRISRTICAEEAKNCKDLLTQAKHKLAAAQTQDEEERRLMEKQEKEKIALQNKMIEEARAKEEAEKQKLEDMKNLRLSFIEMTKDVLRLPEIVEEKRRGGGGRKRRNDDGDEFVNDSSDAGNYDGEEGGEDGERRERRKKDKAAKKASRKKRERRDSGGPDSNRRDEKKRKRKEERDRKLQEKLSAKQSAKIKSRAFLSSSESSDDDKPKPAADSSDDEVDPRPPVDEFDSPTRTDSDSDRETTTKKKKKKAVVDSDEGSVSGSGSGSDNDDKPIIGGSDDDDDDKPAGGNSRDSDGSDAPKKKVIESDSD | not soluble
10 | MDETTIRRLTEEDVDIFRAMRLEALRTEPAAYASTAADWEKLSADEWRTRLTQNNVFAAFWNDAPVGIMGLMRQGSSKMAHRATLIMVYVRAEARGTGIARALLEAVKSFAGDNGIRQIELAVSAENPAAASFYKRAGFSQIGCVPGGILHEGREIDDIMMACRVDAEGKE | not soluble
11 | MDFEKIRKWLEITNEYKQSDFWTNVLKYKAPEHFFDSEASTFVYDFYQDEEYNFIIVEMPGVYEEELTIRLLSKTQLLIKGTITPVFPAEMEVLRERYYGEIERIIQLPEAAETHLLQIQLLNGLLHISYPRQVETVAFNKGLLEHHHHHH | not soluble
12 | MDFHLRNKLNLPGNLPQPPNTNLNLPPNVPALLIQSSIKYSELEKFVRRGLHASGVFVIEDPTTTGVAQLKILSERWGDLPTAIDIQGRAQEYSLRYAAIFTLIDGNGEVVVPQQVIELSRDYRSPPVDATGTTTEREILVNELRRDMSASILRRIDSVIRSRLEKRELLEQAKPPSPATSGALEHHHHHH | not soluble
13 | MDGCYGISDSVGMITQPYRLYVERTDCKKNMARYYAMEITTTLFGDACLTRSWGRIGKRGQSKMHHFEREEEAVDLFLTLTRQKRSRGYRPATGRDRGLEHHHHHH | not soluble
14 | MDGDFRTDFVREPGALKHHPALVLNADYRPLSYYPLSLWPWQEAIKAAWLDRVDIIAEYDEVVRSPSVVLRIPSVVVLKDYVKPQKRVAFTRFNLFLRDEFRCQYCGGKGDLTFDHVVPRAAGGVTSWENVVAACAPCNLRKGSKSLRQANMSLRRPPRRPQAEELQNVGRKFPPNHLHESWMDFLYWDAELDALEHHHHHH | not soluble
